Measured values published in patent US20160031999A1 (CSL, published 2016).

Tests used:
[1] = target: T1, mouse IL-11Rα on transfected cells (mouse, UniProt P70225 24-424); assay: binding to transfected cells
T1 construct: also called mIL-11Rα
T1 sequence: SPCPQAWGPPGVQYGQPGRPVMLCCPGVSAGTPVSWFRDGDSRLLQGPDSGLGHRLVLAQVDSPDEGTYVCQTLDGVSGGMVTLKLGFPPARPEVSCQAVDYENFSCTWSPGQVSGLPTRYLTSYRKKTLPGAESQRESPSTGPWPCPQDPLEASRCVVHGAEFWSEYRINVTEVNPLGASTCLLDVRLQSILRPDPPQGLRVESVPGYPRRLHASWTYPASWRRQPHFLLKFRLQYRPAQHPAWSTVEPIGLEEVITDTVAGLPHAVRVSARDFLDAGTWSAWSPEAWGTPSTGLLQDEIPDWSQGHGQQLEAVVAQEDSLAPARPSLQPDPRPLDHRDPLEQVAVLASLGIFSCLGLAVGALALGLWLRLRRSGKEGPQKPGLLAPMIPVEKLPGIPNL

[2] = target: T2, polypeptide of SEQ ID NO: 86 (human IL-11Rα 23-110 and mouse IL-11Rα 111-367, 8×HIS tag) (human and mouse (chimera), UniProt Q64385 23-367 (mouse entry)); assay: Biacore, antibody captured; N/B: no or ablated binding
T2 chain: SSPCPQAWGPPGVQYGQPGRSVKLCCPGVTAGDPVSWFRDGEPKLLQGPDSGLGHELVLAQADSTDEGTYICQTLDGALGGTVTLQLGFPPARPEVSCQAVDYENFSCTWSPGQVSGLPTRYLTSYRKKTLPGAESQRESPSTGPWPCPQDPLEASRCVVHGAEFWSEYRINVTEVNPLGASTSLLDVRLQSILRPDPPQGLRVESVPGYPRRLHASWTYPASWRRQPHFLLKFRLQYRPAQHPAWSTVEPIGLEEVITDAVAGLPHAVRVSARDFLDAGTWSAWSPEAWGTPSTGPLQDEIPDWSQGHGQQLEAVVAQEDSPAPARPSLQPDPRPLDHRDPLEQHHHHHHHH
Procedure: (§1) Various soluble forms of IL-11R comprising regions of hIL-11R and mIL-11R were produced and comprise sequences as set forth in SEQ ID NOs: 3 and 86-90 and the binding of antibodies 8E2, 8D10 and 8E4 to those polypeptides was determined using Western blotting or Biacore analysis.
(§2) For Biacore analysis, anti-human was IgG immobilized on the sensor surface at ˜10,000-12,000 RU and each antibody was captured at between 0.2 μg/ml and 0.5 μg/ml every cycle for 120 seconds. IL-11 receptors were injected over captured antibodies at varying concentrations, ranging from 1 μM down to 2.5 nM, including injections of buffer blanks. Association was monitored for 3-5 minutes, dissociation was monitored for 3-10 minutes. Approximate affinities were determined by fitting binding curves of each interaction to a 1:1 Kinetic Model.

[3] = target: T3, polypeptide of SEQ ID NO: 89 (mouse IL-11Rα 24-215 and human IL-11Rα 216-363, 8×HIS tag) (mouse and human (chimera), UniProt P70225 24-363); assay: as above
T3 chain: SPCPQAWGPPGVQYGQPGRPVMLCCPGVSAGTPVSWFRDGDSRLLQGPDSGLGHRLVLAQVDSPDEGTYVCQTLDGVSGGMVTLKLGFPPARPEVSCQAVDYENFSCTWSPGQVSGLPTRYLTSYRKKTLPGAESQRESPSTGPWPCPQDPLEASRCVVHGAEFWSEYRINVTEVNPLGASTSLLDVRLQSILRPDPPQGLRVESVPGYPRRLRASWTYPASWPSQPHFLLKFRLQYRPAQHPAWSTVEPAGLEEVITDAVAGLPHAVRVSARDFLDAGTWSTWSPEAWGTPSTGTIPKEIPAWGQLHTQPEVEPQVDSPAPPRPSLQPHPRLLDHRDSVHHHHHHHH
Procedure: as §1, §2

[4] = target: T4, polypeptide of SEQ ID NO: 90 (amino acids 24 to 367 of mouse IL-11Rα, serine at position 206, 8×HIS tag) (mouse, UniProt Q64385 24-367); assay: as above
T4 construct: also called soluble mIL-11Rα
T4 sequence: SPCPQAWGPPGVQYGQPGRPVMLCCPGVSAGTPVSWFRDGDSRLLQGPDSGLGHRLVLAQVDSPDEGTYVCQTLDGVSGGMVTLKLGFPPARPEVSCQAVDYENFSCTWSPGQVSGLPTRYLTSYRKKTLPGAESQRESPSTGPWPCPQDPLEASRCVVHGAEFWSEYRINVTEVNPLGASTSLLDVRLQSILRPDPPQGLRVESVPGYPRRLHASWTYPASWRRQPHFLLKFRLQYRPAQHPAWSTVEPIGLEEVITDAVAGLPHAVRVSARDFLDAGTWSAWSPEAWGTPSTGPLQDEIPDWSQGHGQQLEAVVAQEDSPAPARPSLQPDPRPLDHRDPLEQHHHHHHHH
Procedure: as §1, §2

Measured: binding result

B1: antibody 8D10 (antibody, human IgG4 S228P, kappa, V domains shown)
VH: EVQLLESGGGLVQPGGSLRLSCAASGFTFSRYMMGWVRQAPGKGLEWVSSIVPSGGITIYADSVKGRFTISRDNSKNTLYLQMNSLRAEDTAVYYCARDHMGIVATDWGQGTLVTVSS
VL: DIQMTQSPSSLSASVGDRVTITCQASQDITNYLNWYLHKPGKAPKLLIYDASNLQTGVPSRFSGSGSGTDFTFTITSLQPEDFGTYYCQQYDTLHPSFGPGTTVDIKR
no binding: all assays above
